IntAct's records for PubMed 29039417

B1: BBSome complex member BBS5 (Homo sapiens), Q8N3I7 (parent)
chain: MSVLDALWEDRDVRFDLSAQQMKTRPGEVLIDCLDSIEDTKGNNGDRGRLLVTNLRILWHSLALSRVNVSVGYNCILNITTRTANSKLRGQTEALYILTKCNSTRFEFIFTNLVPGSPRLFTSVMAVHRAYETSKMYRDFKLRSALIQNKQLRLLPQEHVYDKINGVWNLSSDQGNLGTFFITNVRIVWHANMNDSFNVSIPYLQIRSIKIRDSKFGLALVIESSQQSGGYVLGFKIDPVEKLQESVKEINSLHKVYSASPIFGVDYEMEEKPQPLEALTVEQIQDDVEIDSDGHTDAFVAYFADGNKQQDREPVFSEELGLAIEKLKDGFTLQGLWEVMS
partner: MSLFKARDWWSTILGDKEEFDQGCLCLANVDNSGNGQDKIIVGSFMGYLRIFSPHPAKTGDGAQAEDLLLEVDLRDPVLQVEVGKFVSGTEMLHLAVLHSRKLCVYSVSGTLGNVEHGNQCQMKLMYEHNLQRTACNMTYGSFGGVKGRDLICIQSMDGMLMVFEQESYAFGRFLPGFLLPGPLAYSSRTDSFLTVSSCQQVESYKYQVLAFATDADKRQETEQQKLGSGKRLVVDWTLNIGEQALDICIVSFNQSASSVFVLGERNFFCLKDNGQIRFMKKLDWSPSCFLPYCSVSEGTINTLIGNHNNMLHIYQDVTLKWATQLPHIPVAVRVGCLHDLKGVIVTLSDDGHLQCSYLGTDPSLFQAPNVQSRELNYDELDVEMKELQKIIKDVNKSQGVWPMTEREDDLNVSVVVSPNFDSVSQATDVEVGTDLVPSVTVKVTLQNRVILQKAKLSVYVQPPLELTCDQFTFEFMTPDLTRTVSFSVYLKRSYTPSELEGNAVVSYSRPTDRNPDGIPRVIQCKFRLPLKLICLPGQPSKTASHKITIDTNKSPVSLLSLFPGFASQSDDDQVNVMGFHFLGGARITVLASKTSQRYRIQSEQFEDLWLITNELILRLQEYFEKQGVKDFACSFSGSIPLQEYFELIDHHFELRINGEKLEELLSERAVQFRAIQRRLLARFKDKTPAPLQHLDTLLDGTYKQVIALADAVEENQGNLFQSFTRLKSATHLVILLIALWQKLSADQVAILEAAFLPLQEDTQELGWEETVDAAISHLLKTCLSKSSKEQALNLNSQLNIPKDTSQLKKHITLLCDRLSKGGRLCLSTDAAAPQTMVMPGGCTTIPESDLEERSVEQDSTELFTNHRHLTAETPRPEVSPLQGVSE

Variants of: B1
Settings: with pthb1_human BBS9, Q3SYG4

Row | Variant | effect of a mutation on the interaction
1 | MSVLDALWEDRDVRFDLSAQQMKTRPGEVLIDCLDSIEDTKGNNGDRGRLLVTNLRILWHSLALSRVNVSVGYNCILNITTRTANSKLRGQTEALYILTKCNSTRFEFIFTNLVPGSPRLFTSVMAVHRAYETSKMYRDFKLRSALIQNKQLRLLPQEHVYDKINGVWNLSSDQGNLGTEFITNVRIVWHANMNDSFNVSIPYLQIRSIKIRDSKFGLALVIESSQQSGGYVLGFKIDPVEKLQESVKEINSLHKVYSASPIFGVDYEMEEKPQPLEALTVEQIQDDVEIDSDGHTDAFVAYFADGNKQQDREPVFSEELGLAIEKLKDGFTLQGLWEVMS [F180E] | with no effect
2 | MSVLDALWEDRDVRFDLSAQQMKTRPGEVLIDCLDSIEDTKGNNGDRGRLLVTNLRILWHSLALSRVNVSVGYNCILNITTRTANSKLRGQTEALYILTKCNSTRFEFIFTNLVPGSPRLFTSVMAVHRAYETSKMYRDFKLRSALIQNKQLRLLPQEHVYDKINGVWNLSSDQGNLGTAFITNVRIVWHANMNDSFNVSIPYLQIRSIKIRDSKFGLALVIESSQQSGGYVLGFKIDPVEKLQESVKEINSLHKVYSASPIFGVDYEMEEKPQPLEALTVEQIQDDVEIDSDGHTDAFVAYFADGNKQQDREPVFSEELGLAIEKLKDGFTLQGLWEVMS [F180A] | with no effect
3 | MSVLDALWEDRDVRFDLSAQQMKTRPGEVLIDCLDSIEDTKGNNGDRGRLLVTNLRILWHSLALSRVNVSVGYNCILNITTRTANSKLRGQTEALYILTKCNSTRFEFIFTNLVPGSPRLFTSVMAVHRAYETSKMYRDFKLRSALIQNKQLRLLPQEHVYDKINGVWNLSSDQGNLGTKFITNVRIVWHANMNDSFNVSIPYLQIRSIKIRDSKFGLALVIESSQQSGGYVLGFKIDPVEKLQESVKEINSLHKVYSASPIFGVDYEMEEKPQPLEALTVEQIQDDVEIDSDGHTDAFVAYFADGNKQQDREPVFSEELGLAIEKLKDGFTLQGLWEVMS [F180K] | disrupting interaction strength
4 | MSVLDALWEDRDVRFDLSAQQMKTRPGEVLIDCLDSIEDTKGNNGDRGRLLVTNLRILWHSLALSRVNVSVGYNCILNITTRTANSKLRGQTEALYILTKCNSTRFEFIFTNLVPGSPRLFTSVMAVHRAYETSKMYRDFKLRSALIQNKQLRLLPQEHVYDKINGVWNLSSDQGNLGTFFIANVRIVWHANMNDSFNVSIPYLQIRSIKIRDSKFGLALVIESSQQSGGYVLGFKIDPVEKLQESVKEINSLHKVYSASPIFGVDYEMEEKPQPLEALTVEQIQDDVEIDSDGHTDAFVAYFADGNKQQDREPVFSEELGLAIEKLKDGFTLQGLWEVMS [T183A] | with no effect

Continued, values first:

Row | effect of a mutation on the interaction | Variant
5 | with no effect | MSVLDALWEDRDVRFDLSAQQMKTRPGEVLIDCLDSIEDTKGNNGDRGRLLVTNLRILWHSLALSRVNVSVGYNCILNITTRTANSKLRGQTEALYILTKCNSTRFEFIFTNLVPGSPRLFTSVMAVHRAYETSKMYRDFKLRSALIQNKQLRLLPQEHVYDKINGVWNLSSDQGNLGTFFITAVRIVWHANMNDSFNVSIPYLQIRSIKIRDSKFGLALVIESSQQSGGYVLGFKIDPVEKLQESVKEINSLHKVYSASPIFGVDYEMEEKPQPLEALTVEQIQDDVEIDSDGHTDAFVAYFADGNKQQDREPVFSEELGLAIEKLKDGFTLQGLWEVMS [N184A]
6 | with no effect | MSVLDALWEDRDVRFDLSAQQMKTRPGEVLIDCLDSIEDTKGNNGDRGRLLVTNLRILWHSLALSRVNVSVGYNCILNITTRTANSKLRGQTEALYILTKCNSTRFEFIFTNLVPGSPRLFTSVMAVHRAYETSKMYRDFKLRSALIQNKQLRLLPQEHVYDKINGVWNLSSDQGNLGTFFITKVRIVWHANMNDSFNVSIPYLQIRSIKIRDSKFGLALVIESSQQSGGYVLGFKIDPVEKLQESVKEINSLHKVYSASPIFGVDYEMEEKPQPLEALTVEQIQDDVEIDSDGHTDAFVAYFADGNKQQDREPVFSEELGLAIEKLKDGFTLQGLWEVMS [N184K]
7 | disrupting interaction strength | MSVLDALWEDRDVRFDLSAQQMKTRPGEVLIDCLDSIEDTKGNNGDRGRLLVTNLRILWHSLALSRVNVSVGYNCILNITTRTANSKLRGQTEALYILTKCNSTRFEFIFTNLVPGSPRLFTSVMAVHRAYETSKMYRDFKLRSALIQNKQLRLLPQEHVYDKINGVWNLSSDQGNLGTFFITEVRIVWHANMNDSFNVSIPYLQIRSIKIRDSKFGLALVIESSQQSGGYVLGFKIDPVEKLQESVKEINSLHKVYSASPIFGVDYEMEEKPQPLEALTVEQIQDDVEIDSDGHTDAFVAYFADGNKQQDREPVFSEELGLAIEKLKDGFTLQGLWEVMS [N184E]
8 | with no effect | MSVLDALWEDRDVRFDLSAQQMKTRPGEVLIDCLDSIEDTKGNNGDRGRLLVTNLRILWHSLALSRVNVSVGYNCILNITTRTANSKLRGQTEALYILTKCNSTRFEFIFTNLVPGSPRLFTSVMAVHRAYETSKMYRDFKLRSALIQNKQLRLLPQEHVYDKINGVWNLSSDQGNLGTFFIKNVRIVWHANMNDSFNVSIPYLQIRSIKIRDSKFGLALVIESSQQSGGYVLGFKIDPVEKLQESVKEINSLHKVYSASPIFGVDYEMEEKPQPLEALTVEQIQDDVEIDSDGHTDAFVAYFADGNKQQDREPVFSEELGLAIEKLKDGFTLQGLWEVMS [T183K]
